Experimental data from patent US20150297748A1 (Daiichi Sankyo, published 2015).

Molecular target: T1, human B7-H3 variant 1 (human, UniProt Q5ZPR3 27-534)
T1 sequence: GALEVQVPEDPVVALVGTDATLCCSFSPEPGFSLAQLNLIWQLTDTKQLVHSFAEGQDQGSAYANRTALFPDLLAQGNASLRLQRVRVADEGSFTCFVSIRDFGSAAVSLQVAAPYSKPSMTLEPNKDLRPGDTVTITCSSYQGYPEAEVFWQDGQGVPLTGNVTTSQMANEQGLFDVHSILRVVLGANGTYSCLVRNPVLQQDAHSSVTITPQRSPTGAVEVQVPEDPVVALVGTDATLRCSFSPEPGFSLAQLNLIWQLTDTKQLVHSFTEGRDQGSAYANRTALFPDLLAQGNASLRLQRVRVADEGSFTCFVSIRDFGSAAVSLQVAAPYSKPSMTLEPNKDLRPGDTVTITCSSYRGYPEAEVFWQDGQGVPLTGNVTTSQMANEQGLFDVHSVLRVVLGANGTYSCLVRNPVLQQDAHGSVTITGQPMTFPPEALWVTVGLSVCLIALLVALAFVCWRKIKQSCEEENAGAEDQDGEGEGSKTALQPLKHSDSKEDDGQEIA
Test: cell-based or functional assay

Binder | IC50, cytotoxic activity against the CEM_V1-3.1-2 cells
Antibody-drug conjugate (54) (antibody, human IgG1, kappa, V domains shown, drug-linker 6-maleimidohexanoyl-GGFG-NH-(CH2)5-C(=O)-exatecan (compound of Process 5 of Example 54) on cysteines of the reduced hinge disulfide bonds; average 3.0 per antibody molecule; positions not given) VH: QVQLVQSGAEVKKPGSSVKVSCKASGYTFTNYVMHWVRQAPGQGLEWMGYINPYNDDVKYNEKFKGRVTITADESTSTAYMELSSLRSEDTAVYYCARWGYYGSPLYYFDYWGQGTLVTVSS VL: EIVLTQSPATLSLSPGERATLSCRASSRLIYMHWYQQKPGQAPRPLIYATSNLASGIPARFSGSGSGTDFTLTISSLEPEDFAVYYCQQWNSNPPTFGQGTKVEIKR | < 0.1 nM
Antibody-drug conjugate (45) (antibody, human IgG1, kappa, V domains shown, drug-linker 6-maleimidohexanoyl-GGFG-NH-CH2CH2-O-CH2-C(=O)-exatecan (compound of Process 3 of Example 43) on cysteines of the reduced hinge disulfide bonds; average 3.7 per antibody molecule; positions not given) VH: QVQLVQSGAEVKKPGSSVKVSCKASGYTFTNYVMHWVRQAPGQGLEWMGYINPYNDDVKYNEKFKGRVTITADESTSTAYMELSSLRSEDTAVYYCARWGYYGSPLYYFDYWGQGTLVTVSS VL: EIVLTQSPATLSLSPGERATLSCRASSRLIYMHWYQQKPGQAPRPLIYATSNLASGIPARFSGSGSGTDFTLTISSLEPEDFAVYYCQQWNSNPPTFGQGTKVEIKR | < 0.1 nM
Antibody-drug conjugate (32) (antibody, human IgG1, kappa, V domains shown, drug-linker from N-(bromoacetyl)-beta-alanyl-GGFG-NH-(CH2)3-C(=O)-exatecan (compound of Process 3 of Example 30) on cysteines of the reduced hinge disulfide bonds; average 6.0 per antibody molecule; positions not given) VH: QVQLVQSGAEVKKPGSSVKVSCKASGYTFTNYVMHWVRQAPGQGLEWMGYINPYNDDVKYNEKFKGRVTITADESTSTAYMELSSLRSEDTAVYYCARWGYYGSPLYYFDYWGQGTLVTVSS VL: EIVLTQSPATLSLSPGERATLSCRASSRLIYMHWYQQKPGQAPRPLIYATSNLASGIPARFSGSGSGTDFTLTISSLEPEDFAVYYCQQWNSNPPTFGQGTKVEIKR | < 0.1 nM
Antibody-drug conjugate (46) (antibody, human IgG1, kappa, V domains shown, drug-linker 6-maleimidohexanoyl-GGFG-NH-CH2CH2-O-CH2-C(=O)-exatecan (compound of Process 3 of Example 43) on cysteines of the reduced hinge disulfide bonds; average 5.2 per antibody molecule; positions not given) VH: QVQLVQSGAEVKKPGSSVKVSCKASGYTFTNYVMHWVRQAPGQGLEWMGYINPYNDDVKYNEKFKGRVTITADESTSTAYMELSSLRSEDTAVYYCARWGYYGSPLYYFDYWGQGTLVTVSS VL: EIVLTQSPATLSLSPGERATLSCRASSRLIYMHWYQQKPGQAPRPLIYATSNLASGIPARFSGSGSGTDFTLTISSLEPEDFAVYYCQQWNSNPPTFGQGTKVEIKR | < 0.1 nM
Antibody-drug conjugate (21) (antibody, human IgG1, kappa, V domains shown, drug-linker 3-maleimidopropanoyl-NH-(CH2CH2O)2-CH2CH2-C(=O)-GGFG-NH-(CH2)3-C(=O)-exatecan (compound of Process 1 of Example 14) on cysteines of the reduced hinge disulfide bonds; average 5.5 per antibody molecule; positions not given) VH: QVQLVQSGAEVKKPGSSVKVSCKASGYTFTNYVMHWVRQAPGQGLEWMGYINPYNDDVKYNEKFKGRVTITADESTSTAYMELSSLRSEDTAVYYCARWGYYGSPLYYFDYWGQGTLVTVSS VL: EIVLTQSPATLSLSPGERATLSCRASSRLIYMHWYQQKPGQAPRPLIYATSNLASGIPARFSGSGSGTDFTLTISSLEPEDFAVYYCQQWNSNPPTFGQGTKVEIKR | < 0.1 nM
Antibody-drug conjugate (52) (antibody, human IgG1, kappa, V domains shown, drug-linker 6-maleimidohexanoyl-GGFG-NH-(CH2)5-C(=O)-exatecan (compound of Process 5 of Example 54) on cysteines of the reduced hinge disulfide bonds; average 3.1 per antibody molecule; positions not given) VH: QVQLVQSGAEVKKPGSSVKVSCKASGYTFTNYVMHWVRQAPGQGLEWMGYINPYNDDVKYNEKFKGRVTITADESTSTAYMELSSLRSEDTAVYYCARWGYYGSPLYYFDYWGQGTLVTVSS VL: EIVLTQSPATLSLSPGERATLSCRASSRLIYMHWYQQKPGQAPRPLIYATSNLASGIPARFSGSGSGTDFTLTISSLEPEDFAVYYCQQWNSNPPTFGQGTKVEIKR | < 0.1 nM
Antibody-drug conjugate (16) (antibody, human IgG1, kappa, V domains shown, drug-linker 3-maleimidopropanoyl-NH-(CH2CH2O)2-CH2CH2-C(=O)-GGFG-NH-(CH2)3-C(=O)-exatecan (compound of Process 1 of Example 14) on cysteines of the reduced hinge disulfide bonds; average 6.5 per antibody molecule; positions not given) VH: QVQLVQSGAEVKKPGSSVKVSCKASGYTFTNYVMHWVRQAPGQGLEWMGYINPYNDDVKYNEKFKGRVTITADESTSTAYMELSSLRSEDTAVYYCARWGYYGSPLYYFDYWGQGTLVTVSS VL: EIVLTQSPATLSLSPGERATLSCRASSRLIYMHWYQQKPGQAPRPLIYATSNLASGIPARFSGSGSGTDFTLTISSLEPEDFAVYYCQQWNSNPPTFGQGTKVEIKR | < 0.1 nM
Antibody-drug conjugate (44) (antibody, human IgG1, kappa, V domains shown, drug-linker 6-maleimidohexanoyl-GGFG-NH-CH2CH2-O-CH2-C(=O)-exatecan (compound of Process 3 of Example 43) on cysteines of the reduced hinge disulfide bonds; average 6.6 per antibody molecule; positions not given) VH: QVQLVQSGAEVKKPGSSVKVSCKASGYTFTNYVMHWVRQAPGQGLEWMGYINPYNDDVKYNEKFKGRVTITADESTSTAYMELSSLRSEDTAVYYCARWGYYGSPLYYFDYWGQGTLVTVSS VL: EIVLTQSPATLSLSPGERATLSCRASSRLIYMHWYQQKPGQAPRPLIYATSNLASGIPARFSGSGSGTDFTLTISSLEPEDFAVYYCQQWNSNPPTFGQGTKVEIKR | < 0.1 nM

Molecular target: CD33 (UniProt P20138 18-364, limits assumed)
Test: cell-based or functional assay

Sequence of CD33 (P20138 18-364 limits assumed): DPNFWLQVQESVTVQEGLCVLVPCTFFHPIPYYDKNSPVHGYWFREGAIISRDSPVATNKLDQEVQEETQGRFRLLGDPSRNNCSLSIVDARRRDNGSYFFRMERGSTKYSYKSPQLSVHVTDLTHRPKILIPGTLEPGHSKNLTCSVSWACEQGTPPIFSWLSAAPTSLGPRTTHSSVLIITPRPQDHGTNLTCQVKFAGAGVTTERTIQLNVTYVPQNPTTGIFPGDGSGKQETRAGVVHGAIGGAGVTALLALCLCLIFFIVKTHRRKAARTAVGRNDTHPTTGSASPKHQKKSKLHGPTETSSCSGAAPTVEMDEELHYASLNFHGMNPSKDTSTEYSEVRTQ

Binder | IC50, cytotoxic activity against the HL-60 cells
Antibody-drug conjugate (8) (antibody, V domains shown, drug-linker 6-maleimidohexanoyl-GGFG-NH-(CH2)3-C(=O)-exatecan (compound of Process 3 of Example 2) on cysteines of the reduced hinge disulfide bonds; average 3.4 per antibody molecule; positions not given) VH: EVQLVQSGAEVKKPGSSVKVSCKASGYTITDSNIHWVRQAPGQSLEWIGYIYPYNGGTDYNQKFKNRATLTVDNPTNTAYMELSSLRSEDTAFYYCVNGNPWLAYWGQGTLVTVSS VL: DIQLTQSPSTLSASVGDRVTITCRASQSLDNYGIRFLTWFQQKPGKAPKLLMYAASNQGSGVPSRFSGSGSGTEFTLTISSLQPDDFATYYCQQTKEVPWSFGQGTKVEVKR | < 0.1 nM
